# Data from patent US20240190920A1 (SHENZHEN RESEARCH INSTITUTE OF THE HONG KONG POLYTECHNIC …, published 2024).
# Bridge positions count the residues as written; N and C are the ends. Square brackets hold non-standard residues; d marks the D form. R8 = C=CCCCCCC[C@@](C)(N)C(=O)O; S5 = C=CCCC[C@](C)(N)C(=O)O
# B1: Tat-SP4 (Ac-[Tat]-RLISEL(R8)DREKQR(S5)A-NH2) (peptide)
# peptide: Ac-YGRKKRRQRRRRLISEL[R8]DREKQR[S5]A-NH2
# modifications: staple 18-25
# B2: i7-01s-57 (Ac-[Tat]-RRIQ(R8)MEDVLK(S5)RKR-NH2) (peptide)
# peptide: Ac-YGRKKRRQRRRRRIQ[R8]MEDVLK[S5]RKR-NH2
# modifications: staple 16-23
# SMILES: CC[C@H](C)[C@H](NC(=O)[C@H](CCCNC(=N)N)NC(=O)[C@H](CCCNC(=N)N)NC(=O)[C@H](CCCNC(=N)N)NC(=O)[C@H](CCCNC(=N)N)NC(=O)[C@H](CCCNC(=N)N)NC(=O)[C@H](CCC(N)=O)NC(=O)[C@H](CCCNC(=N)N)NC(=O)[C@H](CCCNC(=N)N)NC(=O)[C@H](CCCCN)NC(=O)[C@H](CCCCN)NC(=O)[C@H](CCCNC(=N)N)NC(=O)CNC(=O)[C@H](Cc1ccc(O)cc1)NC(C)=O)C(=O)N[C@@H](CCC(N)=O)C(=O)N[C@]1(C)CCCCCCC=CCCC[C@@](C)(C(=O)N[C@@H](CCCNC(=N)N)C(=O)N[C@@H](CCCCN)C(=O)N[C@@H](CCCNC(=N)N)C(N)=O)NC(=O)[C@H](CCCCN)NC(=O)[C@H](CC(C)C)NC(=O)[C@H](C(C)C)NC(=O)[C@H](CC(=O)O)NC(=O)[C@H](CCC(=O)O)NC(=O)[C@H](CCSC)NC1=O
# B3: i7-01s-02 (Ac-[Tat]-RLIQ(R8)REDREK(S5)RAV-NH2) (peptide)
# peptide: Ac-YGRKKRRQRRRRLIQ[R8]REDREK[S5]RAV-NH2
# modifications: staple 16-23
# SMILES: CC[C@H](C)[C@H](NC(=O)[C@H](CC(C)C)NC(=O)[C@H](CCCNC(=N)N)NC(=O)[C@H](CCCNC(=N)N)NC(=O)[C@H](CCCNC(=N)N)NC(=O)[C@H](CCCNC(=N)N)NC(=O)[C@H](CCC(N)=O)NC(=O)[C@H](CCCNC(=N)N)NC(=O)[C@H](CCCNC(=N)N)NC(=O)[C@H](CCCCN)NC(=O)[C@H](CCCCN)NC(=O)[C@H](CCCNC(=N)N)NC(=O)CNC(=O)[C@H](Cc1ccc(O)cc1)NC(C)=O)C(=O)N[C@@H](CCC(N)=O)C(=O)N[C@]1(C)CCCCCCC=CCCC[C@@](C)(C(=O)N[C@@H](CCCNC(=N)N)C(=O)N[C@@H](C)C(=O)N[C@H](C(N)=O)C(C)C)NC(=O)[C@H](CCCCN)NC(=O)[C@H](CCC(=O)O)NC(=O)[C@H](CCCNC(=N)N)NC(=O)[C@H](CC(=O)O)NC(=O)[C@H](CCC(=O)O)NC(=O)[C@H](CCCNC(=N)N)NC1=O
# B4: i7-01s-10 (Ac-[Tat]-RLIQ(R8)REDREK(S5)RAR-NH2) (peptide)
# peptide: Ac-YGRKKRRQRRRRLIQ[R8]REDREK[S5]RAR-NH2
# modifications: staple 16-23
# SMILES: CC[C@H](C)[C@H](NC(=O)[C@H](CC(C)C)NC(=O)[C@H](CCCNC(=N)N)NC(=O)[C@H](CCCNC(=N)N)NC(=O)[C@H](CCCNC(=N)N)NC(=O)[C@H](CCCNC(=N)N)NC(=O)[C@H](CCC(N)=O)NC(=O)[C@H](CCCNC(=N)N)NC(=O)[C@H](CCCNC(=N)N)NC(=O)[C@H](CCCCN)NC(=O)[C@H](CCCCN)NC(=O)[C@H](CCCNC(=N)N)NC(=O)CNC(=O)[C@H](Cc1ccc(O)cc1)NC(C)=O)C(=O)N[C@@H](CCC(N)=O)C(=O)N[C@]1(C)CCCCCCC=CCCC[C@@](C)(C(=O)N[C@@H](CCCNC(=N)N)C(=O)N[C@@H](C)C(=O)N[C@@H](CCCNC(=N)N)C(N)=O)NC(=O)[C@H](CCCCN)NC(=O)[C@H](CCC(=O)O)NC(=O)[C@H](CCCNC(=N)N)NC(=O)[C@H](CC(=O)O)NC(=O)[C@H](CCC(=O)O)NC(=O)[C@H](CCCNC(=N)N)NC1=O
# B5: i7-01s-37 (Ac-[Tat]-RLIQ(R8)KEDVEK(S5)RKR-NH2) (peptide)
# peptide: Ac-YGRKKRRQRRRRLIQ[R8]KEDVEK[S5]RKR-NH2
# modifications: staple 16-23
# SMILES: CC[C@H](C)[C@H](NC(=O)[C@H](CC(C)C)NC(=O)[C@H](CCCNC(=N)N)NC(=O)[C@H](CCCNC(=N)N)NC(=O)[C@H](CCCNC(=N)N)NC(=O)[C@H](CCCNC(=N)N)NC(=O)[C@H](CCC(N)=O)NC(=O)[C@H](CCCNC(=N)N)NC(=O)[C@H](CCCNC(=N)N)NC(=O)[C@H](CCCCN)NC(=O)[C@H](CCCCN)NC(=O)[C@H](CCCNC(=N)N)NC(=O)CNC(=O)[C@H](Cc1ccc(O)cc1)NC(C)=O)C(=O)N[C@@H](CCC(N)=O)C(=O)N[C@]1(C)CCCCCCC=CCCC[C@@](C)(C(=O)N[C@@H](CCCNC(=N)N)C(=O)N[C@@H](CCCCN)C(=O)N[C@@H](CCCNC(=N)N)C(N)=O)NC(=O)[C@H](CCCCN)NC(=O)[C@H](CCC(=O)O)NC(=O)[C@H](C(C)C)NC(=O)[C@H](CC(=O)O)NC(=O)[C@H](CCC(=O)O)NC(=O)[C@H](CCCCN)NC1=O
# B6: i7-01s-45 (Ac-[Tat]-RLKQ(R8)LEDVEK(S5)RKR-NH2) (peptide)
# peptide: Ac-YGRKKRRQRRRRLKQ[R8]LEDVEK[S5]RKR-NH2
# modifications: staple 16-23
# SMILES: CC(=O)N[C@@H](Cc1ccc(O)cc1)C(=O)NCC(=O)N[C@@H](CCCNC(=N)N)C(=O)N[C@@H](CCCCN)C(=O)N[C@@H](CCCCN)C(=O)N[C@@H](CCCNC(=N)N)C(=O)N[C@@H](CCCNC(=N)N)C(=O)N[C@@H](CCC(N)=O)C(=O)N[C@@H](CCCNC(=N)N)C(=O)N[C@@H](CCCNC(=N)N)C(=O)N[C@@H](CCCNC(=N)N)C(=O)N[C@@H](CCCNC(=N)N)C(=O)N[C@@H](CC(C)C)C(=O)N[C@@H](CCCCN)C(=O)N[C@@H](CCC(N)=O)C(=O)N[C@]1(C)CCCCCCC=CCCC[C@@](C)(C(=O)N[C@@H](CCCNC(=N)N)C(=O)N[C@@H](CCCCN)C(=O)N[C@@H](CCCNC(=N)N)C(N)=O)NC(=O)[C@H](CCCCN)NC(=O)[C@H](CCC(=O)O)NC(=O)[C@H](C(C)C)NC(=O)[C@H](CC(=O)O)NC(=O)[C@H](CCC(=O)O)NC(=O)[C@H](CC(C)C)NC1=O
# B7: i7-01s-58 (Ac-[Tat]-RLIE(R8)REIVEK(S5)RKR-NH2) (peptide)
# peptide: Ac-YGRKKRRQRRRRLIE[R8]REIVEK[S5]RKR-NH2
# modifications: staple 16-23
# SMILES: CC[C@H](C)[C@H](NC(=O)[C@H](CC(C)C)NC(=O)[C@H](CCCNC(=N)N)NC(=O)[C@H](CCCNC(=N)N)NC(=O)[C@H](CCCNC(=N)N)NC(=O)[C@H](CCCNC(=N)N)NC(=O)[C@H](CCC(N)=O)NC(=O)[C@H](CCCNC(=N)N)NC(=O)[C@H](CCCNC(=N)N)NC(=O)[C@H](CCCCN)NC(=O)[C@H](CCCCN)NC(=O)[C@H](CCCNC(=N)N)NC(=O)CNC(=O)[C@H](Cc1ccc(O)cc1)NC(C)=O)C(=O)N[C@@H](CCC(=O)O)C(=O)N[C@]1(C)CCCCCCC=CCCC[C@@](C)(C(=O)N[C@@H](CCCNC(=N)N)C(=O)N[C@@H](CCCCN)C(=O)N[C@@H](CCCNC(=N)N)C(N)=O)NC(=O)[C@H](CCCCN)NC(=O)[C@H](CCC(=O)O)NC(=O)[C@H](C(C)C)NC(=O)[C@H]([C@@H](C)CC)NC(=O)[C@H](CCC(=O)O)NC(=O)[C@H](CCCNC(=N)N)NC1=O
# B8: i7-01s-64 (Ac-[Tat]-RLII(R8)QEDVEK(S5)RKR-NH2) (peptide)
# peptide: Ac-YGRKKRRQRRRRLII[R8]QEDVEK[S5]RKR-NH2
# modifications: staple 16-23
# SMILES: CC[C@H](C)[C@H](NC(=O)[C@H](CC(C)C)NC(=O)[C@H](CCCNC(=N)N)NC(=O)[C@H](CCCNC(=N)N)NC(=O)[C@H](CCCNC(=N)N)NC(=O)[C@H](CCCNC(=N)N)NC(=O)[C@H](CCC(N)=O)NC(=O)[C@H](CCCNC(=N)N)NC(=O)[C@H](CCCNC(=N)N)NC(=O)[C@H](CCCCN)NC(=O)[C@H](CCCCN)NC(=O)[C@H](CCCNC(=N)N)NC(=O)CNC(=O)[C@H](Cc1ccc(O)cc1)NC(C)=O)C(=O)N[C@H](C(=O)N[C@]1(C)CCCCCCC=CCCC[C@@](C)(C(=O)N[C@@H](CCCNC(=N)N)C(=O)N[C@@H](CCCCN)C(=O)N[C@@H](CCCNC(=N)N)C(N)=O)NC(=O)[C@H](CCCCN)NC(=O)[C@H](CCC(=O)O)NC(=O)[C@H](C(C)C)NC(=O)[C@H](CC(=O)O)NC(=O)[C@H](CCC(=O)O)NC(=O)[C@H](CCC(N)=O)NC1=O)[C@@H](C)CC
# B9: i7-01s-70 (Ac-[Tat]-RLIQ(R8)KGDVEL(S5)RKR-NH2) (peptide)
# peptide: Ac-YGRKKRRQRRRRLIQ[R8]KGDVEL[S5]RKR-NH2
# modifications: staple 16-23
# SMILES: CC[C@H](C)[C@H](NC(=O)[C@H](CC(C)C)NC(=O)[C@H](CCCNC(=N)N)NC(=O)[C@H](CCCNC(=N)N)NC(=O)[C@H](CCCNC(=N)N)NC(=O)[C@H](CCCNC(=N)N)NC(=O)[C@H](CCC(N)=O)NC(=O)[C@H](CCCNC(=N)N)NC(=O)[C@H](CCCNC(=N)N)NC(=O)[C@H](CCCCN)NC(=O)[C@H](CCCCN)NC(=O)[C@H](CCCNC(=N)N)NC(=O)CNC(=O)[C@H](Cc1ccc(O)cc1)NC(C)=O)C(=O)N[C@@H](CCC(N)=O)C(=O)N[C@]1(C)CCCCCCC=CCCC[C@@](C)(C(=O)N[C@@H](CCCNC(=N)N)C(=O)N[C@@H](CCCCN)C(=O)N[C@@H](CCCNC(=N)N)C(N)=O)NC(=O)[C@H](CC(C)C)NC(=O)[C@H](CCC(=O)O)NC(=O)[C@H](C(C)C)NC(=O)[C@H](CC(=O)O)NC(=O)CNC(=O)[C@H](CCCCN)NC1=O
# B10: i7-01s-75 (Ac-[Tat]-RLIY(R8)MEDVEK(S5)RKR-NH2) (peptide)
# peptide: Ac-YGRKKRRQRRRRLIY[R8]MEDVEK[S5]RKR-NH2
# modifications: staple 16-23
# SMILES: CC[C@H](C)[C@H](NC(=O)[C@H](CC(C)C)NC(=O)[C@H](CCCNC(=N)N)NC(=O)[C@H](CCCNC(=N)N)NC(=O)[C@H](CCCNC(=N)N)NC(=O)[C@H](CCCNC(=N)N)NC(=O)[C@H](CCC(N)=O)NC(=O)[C@H](CCCNC(=N)N)NC(=O)[C@H](CCCNC(=N)N)NC(=O)[C@H](CCCCN)NC(=O)[C@H](CCCCN)NC(=O)[C@H](CCCNC(=N)N)NC(=O)CNC(=O)[C@H](Cc1ccc(O)cc1)NC(C)=O)C(=O)N[C@@H](Cc1ccc(O)cc1)C(=O)N[C@]1(C)CCCCCCC=CCCC[C@@](C)(C(=O)N[C@@H](CCCNC(=N)N)C(=O)N[C@@H](CCCCN)C(=O)N[C@@H](CCCNC(=N)N)C(N)=O)NC(=O)[C@H](CCCCN)NC(=O)[C@H](CCC(=O)O)NC(=O)[C@H](C(C)C)NC(=O)[C@H](CC(=O)O)NC(=O)[C@H](CCC(=O)O)NC(=O)[C@H](CCSC)NC1=O
# Biological target: T1, Beclin 1 coiled coil domain (human Beclin 1, residues 176-268) (human, UniProt Q14457 176-268)
# T1 construct: range 176-268; also called Beclin 1 coiled coil domain protein
# Experiment: ITC, peptide titrated into Beclin 1 coiled coil domain, 25 C, one-site model
# T1 sequence (Q14457 176-268 limits assumed): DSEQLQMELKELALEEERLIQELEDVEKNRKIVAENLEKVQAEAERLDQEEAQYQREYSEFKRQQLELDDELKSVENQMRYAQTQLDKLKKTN
row,Binder,Kd [µM]
1,B1,3.21
2,B2,2.2
3,B3,0.86
4,B4,2.03
5,B5,2.41
6,B6,1.41
7,B7,0.61
8,B8,356
9,B9,2.14
10,B10,1.29
